Among the data in the supplement of paper PMC10567573 are protein stability index values, retold here.

± gives the standard deviation.

The data set can be described thus: protein stability index of a GFP-peptide fusion (GPS, HEK-293T) (PSI 1-6); higher = more stable.
Where [1] appears, read: treatment: DMSO, c terminus: a fixed tail appended.
Where [2] appears, read: treatment: MLN4924 1 uM, 8 h, c terminus: a fixed tail appended.
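Also: 24-mer peptide tiles fused after GFP, lentivirally expressed, FACS-sorted into six equal bins by GFP/DsRed ratio, decoded by Illumina sequencing, PSI is the read-weighted mean bin number.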

For DCVDGLFKEVKEKFKGWVSYSTSE [DLC1], the protein stability index reads like this: under setting [1], 3.04 ± 0.5; under setting [2], 3.33 ± 0.3.

Regarding DDFDEDELMAELEELEQEELNKKM [CHMP4C], the protein stability index under setting [1] is 5.16 ± 0.85 and the protein stability index under setting [2] is 5.6 ± 0.3.

Sequence DELDMSPGDPKWLDVIERDLHRQF [TBC1D10A] displayed a protein stability index under setting [1] of 3.84 ± 0.21 and a protein stability index under setting [2] of 3.8 ± 0.12.

As for DERRRLLEQKTQESQKKKQQDDSD [ZNF207], the protein stability index came to 5.54 ± 0.33 under setting [1] and 5.53 ± 0.25 under setting [2].

Take DFLEEVEEIVFNLTNNVDLDNTKK [MNAT1]: the protein stability index worked out at 3.03 ± 0.38 under setting [1] and 3.18 ± 0.26 under setting [2].

As to DFVLEMNTAKSTSRVTAFLDDLSQ [NLN], the protein stability index under setting [1] is 2.75 ± 0.26 and the protein stability index under setting [2] was found to be 2.72 ± 0.33.

Regarding DGDAPGSLLPAQVAACAQTVVSLA [CEBPD], the protein stability index by setting is: under setting [1], 4.26 ± 0.19; under setting [2], 4.12 ± 0.39.

DGITNGASWYSLSKGMQDFNYLHT [CPN1]: the protein stability index under setting [1] amounted to 2.35 ± 0.13 and the protein stability index under setting [2] worked out at 2.43 ± 0.22.

As to DGKPFPELVLEQQLDREAQARHQL [PCDHGC5], the protein stability index came out at 4.92 ± 0.33 under setting [1] and 5.04 ± 0.27 under setting [2].

On to DGKRCRRKDVCKSTHHGCEHICVN [MATN2], for which the protein stability index was determined as 3.65 ± 0.3 under setting [1] and 3.92 ± 0.21 under setting [2].

As for DGSTYKIELEGISVMVMREILDYI [GAN], the protein stability index runs as follows: under setting [1], 2.3 ± 0.39; under setting [2], 1.93 ± 0.15.

DHELGRCTDSVVKYELMRPSNKAP [EHMT1]: the protein stability index is 4.19 ± 0.091 under setting [1] and 4.23 ± 0.31 under setting [2].

Regarding DHKRETERVVREALEKLRSEMEEE [ZMYND11], the protein stability index under setting [1] stood at 4.99 ± 0.18 and the protein stability index under setting [2] worked out at 5.35 ± 0.12.

Regarding DIKAAFAPFGRISDARVVKDMATG [TIA1], the protein stability index is, setting by setting: under setting [1], 3.31 ± 0.16; under setting [2], 3.18 ± 0.4.

As for DLIGLPWVCFIYTIMSLASLLFVV [SLC2A12], the protein stability index reads like this: under setting [1], 4.15 ± 0.79; under setting [2], 3.95 ± 0.71.

DLLAYGAKAELPKYKSFNRTAMPY [MYOZ1]: the protein stability index is, setting by setting: under setting [1], 2.42 ± 0.12; under setting [2], 2.29 ± 0.19.

DLLCAQLQLPQLSDLGLLRLCTWL [FANCE]: the protein stability index reads like this: under setting [1], 2.53 ± 0.35; under setting [2], 2.78 ± 0.42.

Regarding DLNSKGKKREFRFHPIKETVVEEP [INTS3], the protein stability index under setting [1] is 3 ± 0.65 and the protein stability index under setting [2] stood at 3.64 ± 0.53.

As to DLSSLRAKYPHDVVNHLSCDEARN [SPACA9], the protein stability index runs as follows: under setting [1], 4.47 ± 0.21; under setting [2], 4.33 ± 0.47.

Sequence DLYNWEVAIFGPPNTLYEGGYFKA [UBE2R2] displayed a protein stability index under setting [1] of 2.66 ± 0.4 and a protein stability index under setting [2] of 2.32 ± 0.37.

On to DNSDYDYSALSCTSDASFHPAFLP [KCNG1], for which the protein stability index reads like this: under setting [1], 3.59 ± 0.26; under setting [2], 3.46 ± 0.32.

As to DPAYIAVLVLIFNAAKTCPTMPAL [INTS4], the protein stability index stood at 3.12 ± 0.56 under setting [1] and 3.09 ± 0.47 under setting [2].

For the sequence DPKRRMTIAQSLEHSWIKAIRRRN [DAPK3], the protein stability index runs as follows: under setting [1], 3.67 ± 0.33; under setting [2], 3.91 ± 0.35.

Take DPLNICVFILLLVFIVVKCFTSE [RTP4]: the protein stability index (treatment: DMSO, c terminus: native) was 2.93 ± 0.24 and the protein stability index (treatment: MLN4924 1 uM, 8 h, c terminus: native) came to 2.89 ± 0.098.

Take DQDLDALMADLVADISEAEQRTIQ [APBB1IP]: the protein stability index reads like this: under setting [1], 4.48 ± 0.36; under setting [2], 4.56 ± 0.21.

In turn, DQDYLHSLGKARTAQVQKDARIGE [FLOT1] had a protein stability index under setting [1] of 4.86 ± 0.16 and a protein stability index under setting [2] of 4.74 ± 0.19.

As to DQERIKVERKRLRNRLAATKCRKR [JUNB], the protein stability index by setting is: under setting [1], 4.83 ± 0.19; under setting [2], 4.53 ± 0.17.

For the sequence DRGLRGFPKNRVLEGVIDRYQQSK [TRIM9], the protein stability index runs as follows: under setting [1], 3.98 ± 0.35; under setting [2], 4.01 ± 0.29.

On to DSETLDLEEAEGAVGYQPEYSKFC [NFE2L1], for which the protein stability index is, setting by setting: under setting [1], 5.13 ± 0.34; under setting [2], 5.01 ± 0.5.

Turning to DSGVQACFNRSREYQLNDSAAYYL [GNAI1], the protein stability index reads like this: under setting [1], 2.8 ± 0.15; under setting [2], 2.75 ± 0.17.

Sequence DSSNSMQTIQKTTTRRIVDGKVVS [KRT18] had a protein stability index under setting [1] of 3.61 ± 0.19 and a protein stability index under setting [2] of 3.73 ± 0.31.

As to DTANEIGQVLHFENVKDVPFGFQT [SERPINB5], the protein stability index was determined as 3.74 ± 0.075 under setting [1] and 3.99 ± 0.2 under setting [2].

Regarding DTTTPTTSAITASRSESPPPLSDP [BRD3], the protein stability index was 5.45 ± 0.42 under setting [1] and 5.57 ± 0.12 under setting [2].

Consider DWMAAMFGGPFVESSTREVVFPYT [RHOBTB2], for which the protein stability index reads like this: under setting [1], 2.23 ± 0.3; under setting [2], 2.04 ± 0.47.

Take DYSQLNESTTKESSEASQLEDAAG [FBXO34]: the protein stability index was 5.47 ± 0.28 under setting [1] and 5.35 ± 0.46 under setting [2].

Consider DYTWTEFDEPFLTRNVQSVSIIDT [TRIP13], for which the protein stability index by setting is: under setting [1], 3.1 ± 0.24; under setting [2], 3.19 ± 0.23.

For the sequence EAACNDVDRWPAPVPGKTLHLPIM [DENND6A], the protein stability index by setting is: under setting [1], 3.52 ± 0.35; under setting [2], 3.19 ± 0.37.

For the sequence EAFAASAVGSGERRGGGPVFPAPV [ZBTB22], the protein stability index was found to be 3.93 ± 0.32 under setting [1] and 4.03 ± 0.28 under setting [2].

Regarding EAQLLQLKVKCLNNLAASQLKLDH [FKBP8], the protein stability index was 2.69 ± 0.26 under setting [1] and 2.95 ± 0.23 under setting [2].

On to EAWYEDLQEVLSSDENGGTYVSPP [DDIT3], for which the protein stability index runs as follows: under setting [1], 4.89 ± 0.11; under setting [2], 4.93 ± 0.15.

For the sequence ECNECGKAFSRSSGLFNHRGIHNI [ZSCAN9], the protein stability index is 2.48 ± 0.59 under setting [1] and 2.16 ± 0.31 under setting [2].

Turning to EDDRDGLLAEREQEEAIAQFPYVE [TMEM106C], the protein stability index is, setting by setting: under setting [1], 5.5 ± 0.19; under setting [2], 5.64 ± 0.1.

Take EDFLLKKPIVPTDGKRVIVVFHCE [CDC25A]: the protein stability index reads like this: under setting [1], 2.37 ± 0.55; under setting [2], 2.25 ± 0.64.

For EDGEDFNLGDALDSSNSMQTIQKT [KRT18], the protein stability index under setting [1] came to 5.44 ± 0.29 and the protein stability index under setting [2] is 5.41 ± 0.32.

Consider EDQGGLEAVRQEMRRQEPLPPPPP [WAS], for which the protein stability index runs as follows: under setting [1], 5.3 ± 0.15; under setting [2], 5.42 ± 0.22.

With EDSSNQEEEGPSTFPDLESEFQAA [MAGEA3], the protein stability index under setting [1] was 5.51 ± 0.28 and the protein stability index under setting [2] turned out to be 5.48 ± 0.16.

Turning to EEADDTRYTQGTGGDEVDDSVSVN [ZC3H15], the protein stability index came to 5.63 ± 0.19 under setting [1] and 5.62 ± 0.19 under setting [2].

As to EEANADLEVKIRDWYQRQRPSEIK [KRT16], the protein stability index under setting [1] came to 4.14 ± 0.64 and the protein stability index under setting [2] was determined as 4.72 ± 0.27.

Take EEDSFYRSSYPQQQGLGASYRTES [TBX5]: the protein stability index by setting is: under setting [1], 4.37 ± 0.2; under setting [2], 4.22 ± 0.15.

Turning to EEEERDQALQAKASLTIPLVPETE [YJU2B], the protein stability index came out at 5.42 ± 0.16 under setting [1] and 5.5 ± 0.12 under setting [2].

EEENIGCEEKAKKNANRPLLDEIV [ACBD3]: the protein stability index reads like this: under setting [1], 5.25 ± 0.24; under setting [2], 5.46 ± 0.24.

Turning to EESGAQLLLEMLTFNPHKRISAFR [CDK4], the protein stability index by setting is: under setting [1], 2.21 ± 0.15; under setting [2], 2.23 ± 0.18.

The sequence EEVDVTSVDPIAAFCSSDEELEDS [RBBP5] showed a protein stability index under setting [1] of 5.55 ± 0.2 and a protein stability index under setting [2] of 5.62 ± 0.16.
